B1: Cytochrome c-551, P00099 (parent)
chain: MKPYALLSLLATGTLLAQGAWAEDPEVLFKNKGCVACHAIDTKMVGPAYKDVAAKFAGQAGAEAELAQRIKNGSQGVWGPIPMPPNAVSDDEAQTLAKWVLSQK

Variants of: B1
Details: Pseudomonas aeruginosa (strain ATCC 15692 / DSM 22644 / CIP 104116 / JCM 14847 / LMG 12228 / 1C / PRS 101 / PAO1); pH 7; 10 °C; Urea; Fluorescence; sodium phosphate 50 mM; reversible: yes; structure 451C; whole UniProt chain shown

Variant | ddG of mutation (higher = less stable) | denaturant m value | denaturant midpoint (higher = more stable) | unfolding free energy
W99F | 1.2 kcal/mol | 1 kcal/mol/M | 5.6 M | 5.9 kcal/mol
E92Q | 0.9 kcal/mol | 1.1 kcal/mol/M | 5.7 M | 6.2 kcal/mol
E92V | 2 kcal/mol | 1.2 kcal/mol/M | 4.3 M | 5.1 kcal/mol
W78F | 1.9 kcal/mol | 1.1 kcal/mol/M | 4.6 M | 5.2 kcal/mol
